Source: the nanobody polyreactivity screen of Harvey et al. (2022)

Test: yeast display, Sf9 membrane polyspecificity reagent, FACS + sequencing; frameworks hold sequencing errors
Outline: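 Galactose-induced (36–48 hours) yeast carrying a synthetic nanobody display library were exposed to 10% biotinylated, detergent-solubilized Sf9 membrane reagent at 4 °C for 1 hour. FACS followed streptavidin microbead enrichment, using low and high (top ~1%) gates for expression (anti-HA) and reagent binding (streptavidin). Colony PCR, MiSeq 2 × 250 sequencing and CDR-length filtering followed. Labels for polyreactivity reflect the gate of origin.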

Sequence	polyreactivity (PSR sort gate)
QVQLVESGGGLVQAGGSLRLSCAASGSTFTFYAMGSYRQAPGKERELGAAINGRGGSTYYADSVKGRFTISRDNANNTVYLQMNSLKPEDTADYYCATRLYYSVRYNMGYWGQGTQVTVSS	high polyreactivity
QVQLVESGGGLVQAGGSLRLSCAASGRTFVYYAMGWYRQAPGKERELVAAISRSGSTYYADSVKGRFTISRDNAKNTVYLQMNSLKPEDTAVYYCAARSVYTGRPYYYWGQGTQVTVSS	high polyreactivity
QVQLVESGGGLVQAGGSLRLSCAASGRTFPEYDMGWYIQAPGKERELVAAISTSGGSTYYADSVKGRFTISRDNAKNTVYLQMNSLKPEDTAVYYCAAQVTSIWGFTYAYRYDYWGQGTQVTVSS	low polyreactivity
QVQIVESGGGLDQAGGSLRLSCAASGRTFVSNDMGRYRQAPGKERELVATISSGASTYYADSVKGRFTISRDNAKTTVYLQMISLKPEDNAVYYCAAEDLVFGGGYDYWGQGTQVNVSS	low polyreactivity
QVQLVESGGGLVQAGGSLRLSCAASGRIFLFYAMGWYRPAPGKERELVAAISVRGGSTYYADSVKGRFTISRDNAKNTVYLQMNSLKPEDTAVYYCAAKQKHTQQYGYWGQGTQVTVSS	high polyreactivity
QVQLVESGGGLVQAGGSLRLSCAASGITFTYYAMGWYRQAPGKERELVAAITSGGDTYYADSVKGRFTISRDNAKNTVYLQMNSLKPEDTAVYYCAAEAVVVTKYSYWTYGLYDYWGQGTQVTVSS	high polyreactivity
QVQLVESGGGLVQAGGSLRLSCAASGNIFKGYAMGWYRQAPGKERELVAAISKSGGSTYYADSVKGRFTISRDNAKNTVYLQMNSLKPEDTAVYYCAARSGGSGGTYGYWGQGTQVTVSS	high polyreactivity
QVQLVESGGGLVQAGGSLRLRCAASGSTFFRYAMGWYRPAPGKERELLAAITSGGITNYADSVKGRFTISRDNAKNTVYLQMHSLKPEDTAVYYCAKRRTYPGKGRFNYWGQGTQVTVSS	low polyreactivity
QVQLVESGGGLVQAGGSLRLICAASGRIFWSNTMGWYRQAPGKERELVAAISGRGGSTYYADSVKGRFTISRDNAKNTVYLQMNSLKPEDTAVYYCAAKPTRSRKIYEYWGQGTQVTVSS	low polyreactivity
QVQLVESGGGLVQAGGSLRLSCAASGSIFTYNVMGWYRQAPGKERELVASISWSGGRTYYADSVKGRFTISRDNAKNTVYLQMNSLKPEDTAVYYCNKVRPPVYFPNRDYWGQGTQVTVSS	low polyreactivity
QVQLVESGGGLVQAGGSLRLSCAASGSTFVPNDMGWYRQAPGKERELVAGISSVGGTDADSVKGRFTISRDNAKNTVYLQMNSLKPEDTAVYYCNALHAYYVLTPYDYWGQGTQVTVSS	low polyreactivity
QVQLVESGGGLVQAGGSLRLSCAASGFTLGYNAMGWYRQAPGTERELVAAITRSGGSTYYADSVKGRFTISRDNAKNTVYLQMNSLKPEDTAVYYCNARSVYGSKQEEYWGQGTQVTVSS	high polyreactivity
QVQLVESGGGLVQAGGSRRVSCAASGITFPNYAMGWYRQAPGKERELVAAITGSGGSTYYADSVKGRFTISRDNAKNTVYVQMNSLKPEDTAVYYCNAVYYRYIRGFYYWGPGTQVTVSS	high polyreactivity
QVHLVESGGGLVQAGGSLRLSCAASGSTFSGYTMGWYRQAPGKEREFVAAISSRGGSTYYADSVKGRFTISRDNAKNSVYLQMNSVNPEDTAVYYCAAKVWARVDGRQFRLEYWGQGTQVTVSS	high polyreactivity
QVQLVESGVRLVQAGGSLRLSCAASGFNFRRYAMGWYRPAPGKERELVAAISWRSGSTYYADSVKGRFTISRDNAKNTVYLQMNSLKPEDTAVYYCAAKDQATYQLNYWGQGTQVTVSS	high polyreactivity
QVQLVESGGGLVQAGGSLRLSCAASGRTFYYYAMGWYRQAPGTERELLAAISWSVGRTYYADSVKGRFTISRDNAKNTVYLQMNSLKPEDTAVYFCNAEPPRGYTVSSGREMVYWGQGTQVTGSS	low polyreactivity
QVQLVESGGGLVQAGGSLRLSCAASGSILIWNTMGWYRQAPGKERELVAAISSGASTYYADSVKGRFTISRDNAKNTVYLQMNSLKPEDTAVYYFYVDLPRVLTDDSWGQGTQVTVSS	low polyreactivity
QVQLVESGGGLVQAGGSLRLSCAASGFTFYLYAMGWYRPAPGKERELVAAITYSAGSTYYADSVKGRFTISRDNEKNTVYLQMNSLKPEDTAVFSCAKRGHYRAWGGGGYWGQGTQVTVSS	low polyreactivity
QVQLVESGRGLVQTGGSLRLSCAASGLVNAMGWYRQAPWKERELVAAISSGGSTYYADSVKGRFTISRDNAKNTVYLQMNSLKPEDTAVYYCNAVYFRHYGYGYWGQGTQVTVSS	low polyreactivity
QVQLVESGGGLVQAGGSLRLSCAASGLIIWLYTMGWYRQAPGKERELVAAIDWSGGSTYYADSVKGRFTISRDNAKNTVYLQMNSLKPEDTAVYYCAADPEPSYRFDYWGQGTQVTVSS	low polyreactivity
QVQLVESGGGLVQAGGSLRLSCAASGFILTSYAMGWYRKAPGKERELVAAISSRGGRTYYADSVKGRFTISRDNEKNTVYLQMNSLKPEDTAVYYCNAGVYVVGDFDYWGLGTQVTVSS	high polyreactivity
QVQLVESGGGLVQAGGSLRLSCAASGFTFYYYAMGWYRQAPGKERELVATISSGGSTYYADSVKGRFTISRDNAKNTVYLQMNSLKPEDTAVYYCAADYLIYYLYEGSIKYGYWGQGTQVTVSS	high polyreactivity

Sequence	polyreactivity (PSR sort gate)
QVQLVESGGGLVQAGGSLRLSCASSGRTIDGYAMGWYRQAPGKERELVATITWSGDSTYYADSVKGRFTISRDNAKNTVYLKMNSLKPEDTSVYYCAADSYYAYPYGYGYWGQGTQVTVSS	high polyreactivity
QVQLVESGGGLVQAGGSLRLSCAASGSIFFSNAMGRYRQAPGKERELVAGIRSGGITNYADSVKGRFTISRDNAKNTVYLQMNSLKPEDTAVYYCNADLAPSTPYFYYFPVRRDYWGQGTQVTVSS	low polyreactivity
QVQLVESGGALVQAGVSLRLSCSASGSTFTKYAIRWYRQAPGKERELVAAITRGGSTTYADSVKGRFTISRDNAKNTVYLQMNSLKPEDTAVYFCNAQYQSGYYTSYPERFDYRGQGTQVTVSS	low polyreactivity
QVQLVESGGGLVQAGGTLRLSCAASGFIINRYAMGWYRQPPGKERELVAAISWSGGRTYYADSVKGRFTISRDNAKNTVSLQMNSLKPEDTAVYYCAADSYTSLDGRDYWGQGTQVTVSS	high polyreactivity
QVQLVESGGGLVQAGGSLRLSCAASGFIFYDYAMGWYRQAPGKERELVAGITDSGGSTSYADSVKGRFTISRDNAKNTVYLHMNSLKPEDTAVYYCAADNYVRAGINYDYWGQGTQVTVSS	low polyreactivity
QVQLVESGGGLVLAGGSLRLSCAASGSTFTIYALGWYRQAPVKQRELVAAITSGGSTYADSVKRRFTISRDNAKNTVYLEMNSLKPEETAVDYCATVTFSHAQRTWYDYWGQGSQVTVSS	high polyreactivity
QVQLVESGVGLVQAGGSLRLSCAASGSTFDYYVMGWYRQAPGKVRELVAAISETGDDTYYADSVKGRFTLSRDNAKNTVYLQINRLNPEDTAVYYCAADSYFYSGFVRRFYFWGQGSQVTVSS	high polyreactivity
QVQLVESGGGLVQAGGSLRLSCAASGSIFGYYTMGWYRQAAGKERELVAAITLDTGNTYYADSVKGRLTITRDNAKNTVYLQMNSLKPEDTAVYYCNTDYYSGYIARWSFDYWGQGTQVTVSS	low polyreactivity
QVQLVESGGGLVQAGGSLRLSCAASGFIFDQYAMGWYRQAPGKERELVAAITTGGDTNYADSVKGRFTISRDNAKNTVYLQMISLKPDDSAVYYCAAKKWLTSGAFDRVFIEFDYWGQGTQVTVSS	low polyreactivity
QVQLVESGGGLVQAGGSLRLSCAASGRIFVQNAMGWYRQAPGKERELVAAINWSVGSTYYADSVKGRFTISRDNAKNTVYLQMNSLKPEDTAVYYCAAGNLYYAEYDYWGQGTQVTVSS	low polyreactivity
QVQLVESGGGLVQAGGSLRLSCAASGSTFTYYAMGWYRQAPGKERELVADISRDGGSTYYADSVKGRFTISRDNAKNTVNLQMNSLKPEDTAVYYCATDMVYKYDYWGQGTQVTVSS	low polyreactivity
QVQLVESGGGLVQAGGSLRLSCAASGFIFYYYAMGWYRQAPGKERELVAAISKSGGSTYYADSVKGRFTISRDNAKKTVYLQMNSLIPEDTAVYYCAAVVTTWPYYGFGYWGQGTQVTVSS	high polyreactivity
QVQLVESGGGLVQAGGSLRLSCAASGSTFGRNAMGWYRQAPGKERELVAAITASGGTTYYADSVKGRFTISRDNAKNTVFLQMNSLKPEDTSVYYCARAGHFSFKYDYWGQGTQVTVSS	low polyreactivity
QVQLVESGGGLVQAGGSLRLSCAASRLIVYQNAMGWYRQAPGKEREFVAAISWSGGRTYYADSVKGRFTISRDNAKNTVYLQMNSLKPEDTAVYYCAARFTYYTYEFEYWGQGTQVTVSS	high polyreactivity
QVQLVESGGGLVQAGGSLRLSCAASGRTFVTNAMGWYRQAPGKERELVAAISYSGGSTTYADSVKGRFTISRDNAKNTVYLQMNSLKPEDTAVYYCNAQEDLVPKLRYYPPSDYWGQGTQVTVSS	low polyreactivity
QVKLVESGGGLVQAGGSLSLSFAYSGITFYGNAMGWYRQAAGTERELVAAITGGGGTNYADSLKGRFTISRDNEKNTVYLQMNSLKPEDTAVYYCNRDYFVWFQRGQYKRGSSWYDYWGQGTQVTVSS	low polyreactivity
QVQLVESGGGLVQAGGSLRLSCAASGITFYEYAMGWYRQAHGKERELVAAISQSGGSTYYADSVKGRFTISRDNAKNTVYLQMNSLKPEDTAVYYCAADIKWSIRRAYDYWGQGTQVTVSS	high polyreactivity
QVQLVESGGGLVQAGGSLRLSCAASGRTFSRNAMGWYRQAPGKERELVAAISQSGGRTYYADSVKGRFTISRDNAKNTVYLQMNSLKPEDTAVYYCAAAGTRKALTEYDYWGQGTQVTLSS	high polyreactivity
QVQLEESGRGLLQAGGSLRISCAASGFIYGTNTMGWYRQAPGIARELVAAITSVGSTNYADSVKGRFTISRDNAKNTVYLQMNSLKPEDTAVYYCPATLYYQYGGDYWGQGTQVTVSS	low polyreactivity
QVQLVESVGGLVQAGGSLRLSCAASGRTFGRYAMGWYRQAPGKERELVAGISRSGDSTHYADSVKGRFTISRDNAKNTVYLQMNSLKPEDTAVYYCNKETPTNGARKYEYWGQGTQVTVSS	low polyreactivity
QVQLVESGGGLVQAGGTLRLSGAASGFIFPQYAMGWYRQAPGKERELVAAISTGGGSTYYADSVKGRFTISRDNAKNTVYLQMNSLKPEDTAVYYCNARPKYDSGHYYWGQGTQVTVSS	high polyreactivity
